Source: US11274129B2, “Methods for protein tyrosine phosphorylation profiling with variant SH2 domains” (priority 2016, dated 2022)

Test system: pTyr-including peptides from pervanadate-treated Jurkat cells
Assay: Enrichment of pTyr-including peptides from pervanadate-treated Jurkat cells by affinity reagents, 1D LC-MS/MS
Parameters: species or system human
Conditions: 3 mg Jurkat peptides
Description: Experiments were conducted to determine the relative efficacy of the variant Src SH2 domains and commonly used anti-pTyr antibodies as affinity reagents for pTyr-including peptides from biological samples. His6/GST-tagged TrM Src SH2 domain (SEQ ID NO: 11) and His6-tagged QuadM Src SH2 domain (SEQ ID NO: 13), as well as anti-pTyr antibodies, were prepared in functionally-equivalent molar amounts by using half the molar amount of the antibodies relative to the SH2 domain variants given that each antibody molecule has two binding sites for its antigen.
The first experiment tested the relative ability of the following affinity reagents to extract pTyr-including peptides from a peptide mixture prepared from Jurkat cells: a His6/GST-tagged TrM Src SH2 (SEQ ID NO: 11), a His6-tagged QuadM Src SH2 (SEQ ID NO: 13), the anti-pTyr antibody 4G10 (agarose conjugate, obtained from Millipore), and a mixture of commercially-available anti-pTyr antibodies. […] The two SH2 affinity reagents were also tested at a 30× amount; the antibodies were not tested at a 30× amount due to the prohibitive cost of doing so. The purified SH2 affinity reagents were prepared as described in Example 1. The antibody mixture contained 4G10 (as above), PY99 (obtained from Santa Cruz Biotechnology), and P-Tyr-100 (slurry of PTMScan® Phospho-Tyrosine Mouse mAb, obtained from Cell Signaling Technology). Since the concentration of P-Tyr-100 is unknown, the amount was used as recommended by the vendor (i.e., 4 μL for 1 mg peptide digest).
FIG. 2A presents a schematic of the experimental design. Each amount of His6-tagged SH2 domain variant or antibody was subjected to a binding experiment with 3 mg of a peptide mixture prepared from pervanadate-treated Jurkat cells.
Jurkat cells (obtained from ATCC) were cultured in a humidified atmosphere of 5% CO2 at 37° C. in Roswell Park Memorial Institute 1640 medium (RPMI-1640) supplemented with 10% bovine serum and 100 U/mL of streptomycin and penicillin.
The cells were again collected by centrifugation. The cell pellets were gently homogenized in an ice-cold lysis buffer containing 8 M urea, 50 mM tris(hydroxymethyl)aminomethane (Tris)-HCl (pH 7.4), 2% protease inhibitor cocktail (v/v, obtained from Sigma-Aldrich), 1% Triton X-100 (v/v), 1 mM NaF, and 1 mM Na3VO4, followed by sonication at 400 W for 120 s. After centrifugation at 25,000 g for 1 h, proteins were precipitated in ice-cold acetone/ethanol/acetic acid (50/50/0.1, V/V/V) solution. Subsequently, the proteins were diluted in reducing buffer containing 100 mM triethylammonium bicarbonate (TEAB) buffer (pH 8.2) and 8 M urea, and the final protein concentration was determined by Bradford assay. The protein suspension was reduced in 10 mM dithiothreitol (DTT) at 37° C. for 2 h, and it was then alkylated in 20 mM iodoacetamide (IAA) in darkness at room temperature for another 30 min. Trypsin digestion was performed at 37° C. overnight with an enzyme-to-protein ratio of 1/25 (w/w). The resulting peptide mixture was stored at −80° C. for further analysis.
Desalted Jurkat peptides (30 mg) were dissolved in ice-cold immunoaffinity purification (IAP) buffer and then split into 10 aliquots with 3 mg of Jurkat peptides each. Binding experiments were performed with the amounts of antibody (1×, 5×) or SH2 domain variant (1×, 5×, 30×) set out in Table 1 and FIG. 2A.
For antibody-based enrichment, 4G10 or the antibody mixture was incubated with the sample at 4° C. overnight while rotating. The beads were washed three times with ice-cold IAP buffer and twice with ice-cold water. To release the bound peptides, the beads were eluted twice with 200 μL 0.15% trifluoroacetic acid (TFA) for 15 min at room temperature.
For SH2-based enrichment, Ni-NTA beads containing the purified SH2 proteins were washed extensively in twenty column volumes of PBS buffer (pH 7.0) containing 20 mM imidazole. […] The washed beads were incubated with the peptide mixture at 4° C. overnight while rotating. […]

B1: Triple mutant: TrM human Src SH2 domain variant with Thr183Val, Cys188Ala and Lys206Leu; His6/GST-tagged form SEQ ID NO: 11 (protein)
chain: DSIQAEEWYFGKITRRESERLLLNAENPRGTFLVRESETVKGAYALSVSDFDNAKGLNVKHYLIRKLDSGGFYITSRTQFNSLQQLVAYYSKHADGLCHRLTTVCPTSK
modifications: SH2 protein domain; TrM human Src SH2 domain
B1 was tested, and the “Number of pTyr sites identified” value (0.375 nmol (1x) pTyr-binding sites) was 578, the “Number of pTyr sites identified” value (1.875 nmol (5x) pTyr-binding sites) was 1060 and the “Number of pTyr sites identified” value (11.25 nmol (30x) pTyr-binding sites) was 1165.
